Laboratory results taken from the nanobody polyreactivity screen of Harvey et al. (2022).

assay: yeast display, Sf9 membrane polyspecificity reagent, FACS + sequencing; frameworks hold sequencing errors
In short: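 A nanobody's polyreactivity label depends on the gate it was sorted from. Yeast display cells were stained with 10% biotinylated, detergent-solubilized Sf9 membrane reagent for 1 hour at 4 °C, enriched on streptavidin microbeads and sorted by FACS. The low and high (top ~1%) gates were set on anti-HA fluorescence for expression and streptavidin fluorescence for reagent binding.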

Sequence | polyreactivity (PSR sort gate)
QVQLVESGGGLVQAGGSLRLSCAASGIIFQRNDMGWYRQAPGKERELVANIRDGGITYADSVKGRFTISRDNAKNTVYLQMNSLKPEDTAVYYCARDDTSPGYGDQSFNAAYYYWGQGTQVTVSS | low polyreactivity
QVQLVESGGCLVQAGGSLRLSCASSGIIIRKYAMGWYRQQPGKERELVAAITTRGSRTYYADSVKGRFTISRDNAKNTVYLQMNSLKPEDTAVYYCASDRYTVRMDYWGQGTQVTVSS | high polyreactivity
QVQLVESGGGIVQAGRSLRLSCPASGLIFGPYTMGWYRQAPGKERELVAAISRSGGITYYADSVKGRFTISRDNATNTVYLQMNSLKPEDTAVYYCAARLVRESEPLGYWGQGTQVTLSS | high polyreactivity
QVQLVESGGGLVQAGGSLRLSCAASGFIFYSYAMGWYRQAPGKERELVATITSGGSTNYADSVKGRFTISRDNAKNTVYLQMNSLKPEDTAVYYCAARYYPFWARRNRYDYWGQGTQVTVSS | high polyreactivity
QVQLVESGGGLVQAGGSLRLSCAASGITFTGYAMGWSRQAPGKERELVAAISKRGARTYYADSVKGRFTNSRDNAKNTVYIQMNSLKPEDTAVYYCAADSTAQDIAGLYYWGQGTQVTVSS | high polyreactivity
QVQLVESGGGLVQAGGSLRLTCAASGFTFDRYAMGWYRQAPGKEREVVAAISRSGTSTYYADSVKGRFTISRDNAKNTVYLQMNSLKPEDTAVYYCATRYNVYFPSRRYQYDYWGQGSQVTVSS | high polyreactivity
QVQLVESGGGLVQAGGSLRLSCAASGFTFYRYAMGWYRQAPGKERELVATISASGGSTYYADSVKGRFTISRDNAKNTVYLQMNSLKPEDTAVYYCAVRYKSWFGFNYWGQGTQVSVSS | high polyreactivity
QVQLVESGGGIVQAGGSLRLSCAASGFNFLRYAMGWYRQAPGKERELVAAISTSGGSTSYADSVKGRFTISRDNAKNTVYLQMNSLNPEDTAVYYCNAVLYKVSISEYDYWGQGTQVTVSS | high polyreactivity
QVQLVESGGGLVQAGGSLRLSCAASGFTFYVYAMGWYRQARGQERELVATISRGGSTNYADSVKGRFTISRDNAKNTVYLQMNSLKPEDTAVYYCAARKYHYFPSRYGYWGQGTQVTVSS | high polyreactivity
QVQLQESGGGLAQAGGSLRLSCAASGNIFDADIMGWYRQAPGKERELVGSITDGGSTNYVDSVKGRFTISRDNAKNTVHLQMNSLKPEDTAVYYCAAIAYPDIPTYFDYDSDCFNWGHGTQVTVSS | high polyreactivity
QVQLVESGGGLVQAGGSLRLSCAASGFTFDFYAMGWYRQAPGKERELVAAISRRGGRTSYADSVKGRFTISRDNAKNTVYLQMNSLKPEDTAVYYCAAASLGGDGLVAYYYWGQGTQVTVSS | high polyreactivity
QVQLGESGGALVQAGGSLRLSCAASGSTIYAYDMGWYRPAPGKERELVAAISSGGSTYYADSVKGRFTFSRDNAKNTVYLQMNCLKPEDTAVYYCATEYTYELEASEPSDYDYWGQGTQVTVSS | low polyreactivity
QVQLVESGGGLVQAGGSLRISCAASGSTFGDYTMGWYRQAHGKERELVAAITLTGGSTFYADSVKGRFTISRDNAKNTVYLQMNSLKPVDTAVYYCNTDVIRWVGGTWHRYYYWGQGTQVTVSS | low polyreactivity
QVQLVESGGGLVQAGGSLRLSCAASGFIFGGYAMGWYRQAPGKERELVAAITGGGTTYYADSVKGRFTISRDNAKNTVYLQMNSLKPEDTAVYYCAAAYRLGYHKYYYWGQGTQVTVSS | high polyreactivity
QVQLVESGGGLVQAGGSLRLSCAASGRTFYKYGMGWYRQAPGKERELVARINSNGGSTYYADSVKGRFTISRDNAKNTVYLQMNSLKPEDTAVYYCARSYVRSYGYYYWGKGTQVTVSS | low polyreactivity
QVQLVESGGGLVQAGGSLRLSCAASGNIFYVYAMGWYRQAPGKERELVAVISRNDGSTYYADSVKARFTISRDNAKNTVYLQMNSLKPEDTAVYYCNAEWYFWGQGTQVTVSS | low polyreactivity
QVQLVESGGGLVQAGASLRLSCAASGRIFSGNAMGWYRQAPGKERELVAAISRGGSTDYADSVKGRFTSSRDNAKNTVYLQMNSLKPEDTAVYYCADRVNGKRRRYDYWGQGTLVTVSS | high polyreactivity
QVQLVESGGVLVQSGGSLRLSCAASGSTFAYYAMGWYRQAPGKERELVAPISWSGGSTYYADSVKVRFTISRDNAKNTVYLQMNSLNPEDTAVYYCNKRNVLDYDYWGQGTQVTVSS | low polyreactivity
QVQLVESVGGLVQAGGSLRLSCAASGSIFGVYVMGWYRQAPGKERELVAAITRGASTNYADSVKGRFTISRDNAKNTVYLQMKSLKPEDTAVYYCAAEWWEEYGYYDDNDYWGQGTQVTVSS | low polyreactivity
QVQLVESGGGLVQAGGSLRLSCAASGSIFAVYAMGWYRQAPGKERELVAVITRSGGSTYYADSVKGRFTISRDNAKNTVYLQMNSLKPEDTEVYYCAARSGYGYTRYEYWGQGTQVTVSS | high polyreactivity
QVQLVESGGGLVQAGGSLRLSCAATGFTFSRNTMGWYRQAPGKERELGARITKRGGTTYYADSVKGRFTISRDNAKNTVYLQMNCLKPEDSAVYYCAAATQNPGSDYWGQGTQVTVSS | high polyreactivity
QVQLVESGGGLVQAGGSLRLSCAASGFTFSPNAMGWYRQAPGKERELVAAITTTGGSTHYADSVKRRFTISRDHAKNTVYLQMHSLKQEDTAVYYCAADWYFEYPTAFHYEYWGQGTQVTVSS | high polyreactivity
HVQLVESGGGLVQAGGSLRLRSAASGRIFYYNAMGWYRQAPGKERELVASISWDASSTYYADSVKGLFTISRDNAKNTVYLQMNSLKPEDTAVYYCNKIHLYRQYDYWGQGTQVTVSS | low polyreactivity
QVQIVESGGGLVQAGGSLRLSCAASGSTYDHYTLGWYRQAPGKERELVAAINRIADSTYYADSVKGRFTNSRDNQKNTVYVQMTSLNPEDTAVYYCAARQFVYSSRIILYDYWGHGTQVTVSS | high polyreactivity
QVQLVESGGGLVQAGGSLRLSCAASGRIFYFYVMGWYRQAPGKEREFVAAISQSGGSTYYADSVKGRFTISRDNAKNTVYLQMNSLKPEDTAVYYCAADLKAWGRYYYWGQGTQVTVSS | low polyreactivity
QVQLVESGGGLVQAGGSLRLSCAASGGIFDTYAMGWYRQAPGKERELVAAISSTGGSSYYADSVKGRFTISRDNAKNTVYLQMNSLKPEDTAVYYCNAVLARFWRYRRWEYDYWGQGTQVTVSS | high polyreactivity
QVQLVESGGGLVQAGGSLRLSCAASGSIFIPYAMGWYRQAPGKERELVAAISRRGGSTYYADSVKGRFTISRDNAKNTVYLQMNSLKPEDTAVYYCNKDVNAYGYFEYYYWGQGTQVTVSS | low polyreactivity
QVQLVESGGGIVQAGCSLRLSSAASGFTFYGYAMGWYRQAPGKERELVAAMSWDGSSTYYADSVKGRFTISRDNAKNTVYLPMNSLKPEDTAVYYCAREYYYGYYYPIQSDYWGQGTQVTVSS | low polyreactivity
QVQLVESGGGLVQAGGSLRLSCAASGRIFSGYAMGWYRQAPGKEWELVAAITWSGGSTYADSVKGRFTISRDNAKHTVYLQMNTLKPEDTAVYYCNTSARYNGSYKYDYWGQGTQVTVSS | low polyreactivity
QVQLVESGGVLVQAGGSLRLSCAASGFTFTPNAMGWYTQAPGKERELVAAIDWNGGSTYYADAVKGRFTISRDNAKNTVYLQMNSLKPEDTAVYYCAADDEEWKVITDYDYWGQGTQVTVSS | low polyreactivity
